Test results taken from patent publication US9650421B2, “Self-assembled nanostructures” (NORTHWESTERN UNIVERSITY, priority 2011, dated 2017).
No end group written: not given here.

Experiments:
nucleic acid = details: physiological nucleic acid ligand; cited from earlier work
[1] = system: double strand DNA fragments; assay: TEM of peptide-linear double strand DNA fragment complexes; format: physicochemical; details: for morphology of complexes with short DNA fragments: short ds DNA fragments (150, 300 bp); for morphology of complexes with DNA fragments above 300 bp: template length above 300 bp (600, 1200 bp)
Procedure: (§1) A Complex between 1 (80 μM) and ds 150 bp DNA fragment (200 ng) in 20 μl of 25 mM Tris buffer (pH 7.4, 25 mM) B Complex between 2 (80 μM) and ds 150 bp fragment (200 ng) in 20 μl of 25 mM Tris buffer (pH 7.4, 25 mM) C Complex between 1 (80 μM) and ds 300 bp DNA fragment (200 ng) in 20 μl of 25 mM Tris buffer (pH 7.4, 25 mM) D Complex between 2 (80 μM) and ds 300 bp fragment (200 ng) in 20 μl of 25 mM Tris buffer (pH 7.4, 25 mM).
as §1, with “600” for “150”, “1200” for “300”
(§2) Complexes between nucleic acid templates and molecules 1, 2 and 3 were prepared under conditions where no more free DNA could be detected by gel electrophoresis and analyzed by transmission electron microscopy (TEM).
The toroid proportion is insignificant as they are difficult to observe. Furthermore, the length of the complexes was homogenous, and around 706 nm in average. The calculated length of the PBR322 plasmid in a supercoiled conformation is 737 nm, very close to the observed dimensions. A slight shortening of the complexes can be explained by the contraction of DNA in the presence of multivalent counterions. Complexes of short double strand DNA fragments (25-1200 bp) have also been prepared and observed by TEM. (FIG. 8). The expected control of the dimensions of the complexes by template effect clearly obeys different regimes depending both of the length of the template and design of the artificial capsomers.

[2] = system: plasmid pBR322 DNA template; assay: TEM of peptide-plasmid DNA complexes; format: physicochemical; details: peptide 80 μM, plasmid 200 ng in 20 μl 25 mM Tris buffer pH 7.4
Procedure: A Complex between 3 (80 μM) and plasmid pbr322 (200 ng) in 20 μl of 25 mM Tris buffer (pH 7.4, 25 mM) B Complex between 1 (80 μM) and plasmid pbr322 (200 ng) in 20 μl of 25 mM Tris buffer (pH 7.4, 25 mM) C Complex between 2 (80 μM) and plasmid pbr322 (200 ng) in 20 μl of 25 mM Tris buffer (pH 7.4, 25 mM).
as §2

[3] = Sedimentation velocity analytical ultracentrifugation; format: physicochemical
Procedure: Sedimentation velocity experiments were conducted in the same buffer as the equilibrium experiments. Velocity experiments were performed at 50 krpm and 23° C., scans were taken at 230 nm in intensity mode. The data were analyzed with the 2-dimensional spectrum analysis (2DSA) [Brookes et al., European Biophysics Journal 39(3): 405-414 (2010)] and time invariant noise was subtracted. 2DSA results were further refined with the genetic algorithm analysis (GA) [Brookes et al., Proceedings of the 9th annual conference on Genetic and evolutionary computation 361-368 (2007)] coupled with Monte Carlo (MC) analysis [Demeler et al., UltraScan A Comprehensive Data Analysis Software Package for Analytical Ultracentrifugation Experiments. Analytical Ultracentrifugation—Techniques and Methods. Royal Society of Chemistry: 2005]. Sedimentation coefficient distributions were calculated with the van Holde-Weischet analysis [Demeler et al., Anal. Biochem. 335(2): 279-288 (2004)].
Weight-average sedimentation coefficients determined with the 2DSA-MC and the GA-MC analysis were both 2.26 s.

[4] = Sedimentation equilibrium analytical ultracentrifugation; format: physicochemical; parameters: partial specific volume: unit not given here
Procedure: The coiled-coil formation was then investigated further by analytical ultracentrifugation, which gives access to the absolute molecular weight of the aggregates in solution and subsequently their aggregation number. Equilibrium experiments were conducted at 23° C. and in 50 mM phosphate buffer containing 150 mM NaCl, pH 7.4. Three loading concentrations (18, 30 and 42 μM) were scanned at 230 nm, and sedimented to equilibrium at 20 krpm, 26.6 krpm, 33.3 krpm, and at 39.9 krpm, resulting in 12 scans which were globally fit to multiple models as described previously [Johnson et al., Biophys. J. 36(3): 575-588 (1981); Demeler et al., UltraScan A Comprehensive Data Analysis Software Package for Analytical Ultracentrifugation Experiments. Analytical Ultracentrifugation—Techniques and Methods. Royal Society of Chemistry: 2005]. The most appropriate model was chosen based on visual inspection of the residual run patterns and based on the best statistics. Statistics were evaluated with the Monte Carlo analysis implemented in UltraScan [Demeler et al., Colloid & Polymer Science 286(2): 129-137 (2008)].
A good fit was obtained when all scans were fitted globally to a single ideal species model (RMSD=7.3631e-03, see FIG. 4). A fixed molecular weight distribution model with 100 molecular weight slots between 10,000 and 50,000 Dalton provided slightly better statistics (RMSD=4.6435e-03) because of the additional degrees of freedom.
This molecular weight was consistent with a hexameric assembly of 1. […] Since both sedimentation velocity and sedimentation equilibrium experiments only measure the buoyant molecular weight of the sample, errors can be introduced when the partial specific volume is in error. The partial specific volume of 1 was not determined in an independent measurement, but it is reasonable to assume that due to the presence of the PEG2000 chain, the partial specific volume is actually higher than was estimated. The partial specific volume was therefore also fitted using the single species ideal equilibrium model, holding the molecular weight fixed at the theoretical estimate of 39,921 Daltons and determined a partial specific volume of […], which is reasonable considering the presence of the PEG2000 chain.

[5] = Circular dichroism of the peptide (alpha-helical content); format: physicochemical
Procedure: FIG. 3 depicts circular dichroism of peptide 1 at 21 μM at pH 8 in Tris buffer.
The self-assembly of molecules 1 and 2 into mushroom-shaped nanostructures by coiled-coil formation is an aspect of the disclosure. The self-assembly of the block copolymer 1 was characterized under physiological conditions to probe its propensity to generate […] coiled-coils aggregates.

1200 bp DNA fragment = assay: Agarose gel shift assay of DNA binding; details: for peptide concentration at which no free DNA can be detected: 200 ng DNA in 20 μl; for peptide molecules for one molecule of DNA at full binding / peptides per base pair at full binding: at 20 μM peptide
Procedure: FIG. 6 depicts agarose gel electrophoresis of complexes of 2 and a 1200 bp DNA fragment. Each sample was prepared in a volume of 20 μl Well 1: 200 ng of 1200 bp DNA fragment; Well 2—10: 200 ng of 1200 bp DNA fragment+2 at a concentration of 2.5-5-7.5-10-15-20-25-35-45 μM.
The ability of compounds 1 and 2 to bind to nucleic acids was assayed by agarose gel shift assays where DNA was mixed with peptides 1 and 2 in different ratio. (FIG. 6). According to these studies at a peptide concentration of 20 μM, no free DNA can be detected in the sample. This corresponds to a ratio of approximately 1600 peptide molecules for one molecule of DNA, or 1.3 peptides per base pair.

[6] = fixed molecular weight distribution model, Monte Carlo analysis

Molecule | binding constant to nucleic acid (nucleic acid) | morphology of complexes with short DNA fragments [1] | morphology of complexes with DNA fragments above 300 bp [1] | morphology of complexes with plasmid pBR322 [2] | weight-average sedimentation coefficient ([3]; 2DSA-MC and GA-MC analysis) [s] | frictional ratio ([3]; GA-MC analysis) | molecular weight of single species (94% of the signal) ([3]; GA-MC analysis) [kDa] | weight-average sedimentation coefficient ([3]; van Holde-Weischet analysis, 50 krpm, 23° C.) [s] | molecular weight of the species in solution, single ideal species fit ([4]; 23° C., 50 mM phosphate buffer, 150 mM NaCl, pH 7.4, 18, 30 and 42 μM) [kDa] | oligomeric state in solution ([4]; concentrations between 18 and 42 μM) | partial specific volume ([4]; fitted with single species ideal equilibrium model, molecular weight fixed at 39,921 Daltons) | Z-average molecular weight [4, 6] [kDa] | number-average molecular weight [4, 6] [kDa] | weight-average molecular weight [4, 6] [kDa] | alpha-helical content ([5]; before addition of DNA, 21 μM, pH 8, Tris buffer) [%] | alpha-helical content ([5]; upon addition of DNA) [%] | peptide concentration at which no free DNA can be detected (1200 bp DNA fragment) [µM] | peptide molecules for one molecule of DNA at full binding (1200 bp DNA fragment) | peptides per base pair at full binding (1200 bp DNA fragment) | average length of complexes with plasmid pBR322 [2]
NCCCNCCCCNCCCN [spermine] | micromolar range |  |  |  |  |  |  |  |  |  |  |  |  |  |  |  |  |  |  | 
peptide 1: Coiled-coil peptide (SEQ ID NO: 1) with C-terminal lysine-linked spermine DNA binding unit and PEG2000 carboxylic acid coupled to N-terminus ({PEG2000 carboxylic acid}-REGVAKALRAVANALHYNASALEEVADALQKVKM; not fully specified (C-terminus)) |  | rodlike morphology and having predominantly the length of the DNA template | mixture of the expected filamentous complexes of different length and toroidal complexes | mixture of rods, branched and toroidal complexes | 2.26 | 1.370 | 33.74 | 2.28 | 33.38 | hexamer or heptameric oligomer | 0.809 | 36.28 | 32.34 | 34.67 | 36 | 53 | 20 | approximately 1600 | 1.3 | 
2: Coiled-coil peptide (SEQ ID NO: 1) with spermine unit and mPEG5000-maleimide conjugated to an N-terminal cysteine residue ({C(mPEG5000-maleimide)}-REGVAKALRAVANALHYNASALEEVADALQKVKM; also: spermine unit, site not given here) [compound 2] |  | rodlike morphology and having predominantly the length of the DNA template | homogenous rods having predominantly a length corresponding to the DNA template folded in two | only filamentous complexes were observed |  |  |  |  |  |  |  |  |  |  |  |  | 20 | approximately 1600 | 1.3 | around 706 nm
